Measurements published in patent US20030143669.

How the values were obtained:
[1] = system: Insect-expressed epitope-tagged human phosphodiester α-GlcNAcase lacking the pro-sequence
[2] = system: CHO-expressed epitope-tagged, soluble human phosphodiester α-GlcNAcase

Substance: Furin
- Western blot of cleavage; UCE activity [1]: the insect-derived UCE is not cleaved by furin as shown by the single UCE form
- UCE activity, % increase relative to the minus Furin samples [2]: up to 130% increase in activity
- Western blot of cleavage (pro-UCE to mature UCE) [2]: the CHO-derived UCE is sensitive to furin cleavage as shown by the progressive conversion of the pro-UCE to the mature form
